Reference: patent US20250043302A1, “MUTATED HYDROXYPHENYLPYRUVATE DIOXYGENASE POLYPEPTIDE, AND CODING GENE AND USE THEREOF” (BEIJING DABEINONG BIOTECHNOLOGY CO., LTD., priority 2021, published 2025)

Assays:
Assay type in all cases: in vivo
[1] = test system: Arabidopsis thaliana T1 plants; experiment: Topramezone tolerance of transgenic Arabidopsis thaliana T1 plants (spray, bleached leaf area grade, damage score); settings: Table 10; for Classification and statistics of the grade of pesticide damage Grade 0: number of plants at grade 0; for Classification and statistics of the grade of pesticide damage Grade 1: number of plants at grade 1; for Classification and statistics of the grade of pesticide damage Grade 2: number of plants at grade 2; for Classification and statistics of the grade of pesticide damage Grade 3: number of plants at grade 3; for Scores: pesticide damage score
Procedure, shortened: (§1)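 T1 transformants selected by glufosinate; 18-day-old plants, with empty-vector and wild-type controls, sprayed with topramezone (25–200 g ai/ha), isoxaflutole (35–280 g ai/ha) or mesotrione (52.5–420 g ai/ha), water as 0×. Bleached leaf area fraction scored at 7 DAT as grades 0–3.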

[2] = test system: Arabidopsis thaliana T1 plants; experiment: Isoxaflutole tolerance of transgenic Arabidopsis thaliana T1 plants (spray, bleached leaf area grade, damage score); settings: Table 11; for Classification and statistics of the grade of pesticide damage Grade 0: number of plants at grade 0; for Classification and statistics of the grade of pesticide damage Grade 1: number of plants at grade 1; for Classification and statistics of the grade of pesticide damage Grade 2: number of plants at grade 2; for Classification and statistics of the grade of pesticide damage Grade 3: number of plants at grade 3; for Scores: pesticide damage score;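 for Scores: Weighted damage index from 0 to 100 where higher means more damage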
Procedure, shortened: as §1

[3] = test system: Arabidopsis thaliana T1 plants; experiment: Mesotrione tolerance of transgenic Arabidopsis thaliana T1 plants (spray, bleached leaf area grade, damage score); design: Scores: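 damage score 0-100 computed as Σ(N×S)/(T×M)×100 over grades 0-3 with higher meaning more damage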; settings: Table 12; for Classification and statistics of the grade of pesticide damage Grade 0: number of plants at grade 0; for Classification and statistics of the grade of pesticide damage Grade 1: number of plants at grade 1; for Classification and statistics of the grade of pesticide damage Grade 2: number of plants at grade 2; for Classification and statistics of the grade of pesticide damage Grade 3: number of plants at grade 3; for Scores: pesticide damage score
Procedure, shortened: as §1

B1: HPPDm-5-02: nucleotide sequence encoding Avena sativa HPPD with A111T+K351N+F372A+F383W; vector DBN11786 (nucleic acid)
DNA: ATGCCACCTACTCCAGCTACAGCTACTGGTGCTGCTGCTGCTGCCGTTACTCCTGAGCACGCTGCCAGGTCATTCCCCAGGGTGGTTCGCGTGAACCCCAGATCTGATAGGTTCCCAGTTCTGAGCTTCCACCATGTTGAGCTGTGGTGCGCTGATGCTGCTTCTGCTGCTGGCAGGTTCTCTTTCGCTCTTGGTGCTCCACTCGCTGCTAGATCTGATCTGTCTACAGGAAATAGCGCTCATGCCTCACTCCTGCTTCGCTCAGGTGCTTTGGCCTTCCTCTTCACCGCTCCATATGCTCCCCCACCTCAGGAGGCTGCTACTGCTGCTACTACAGCCTCCATTCCAAGCTTCTCAGCTGATGCCGCTAGAACCTTCGCTGCTGCTCATGGACTTGCCGTGAGGTCTGTTGGTGTTCGCGTGGCTGATGCTGCTGAGGCTTTCAGAGTTTCCGTTGCCGGCGGAGCTAGGCCAGCTTTCGCTCCTGCTGATTTGGGACATGGTTTCGGCCTGGCTGAGGTTGAGCTTTACGGTGACGTGGTTCTCCGCTTCGTGTCTTACCCAGATGAGACTGACCTGCCTTTCCTTCCCGGCTTCGAGAGAGTTTCCTCTCCTGGTGCCGTGGATTACGGCCTGACAAGGTTCGACCACGTGGTTGGAAACGTTCCCGAGATGGCTCCAGTGATCGATTACATGAAGGGCTTCCTTGGATTCCATGAGTTCGCCGAGTTCACTGCTGAGGACGTGGGAACCACTGAGTCCGGTTTGAACTCTGTGGTTCTCGCCAACAATTCTGAGGCTGTTTTGCTCCCTCTGAATGAGCCTGTGCATGGAACCAAGAGGAGAAGCCAGATTCAAACTTACCTGGAGTACCACGGTGGCCCTGGAGTTCAGCATATCGCCCTTGCTTCTAATGATGTGTTGCGCACACTCAGAGAGATGCGCGCCAGAACCCCCATGGGAGGTTTCGAGTTCATGGCCCCACCACAGGCTAAGTACTACGAGGGCGTTAGAAGGATTGCTGGAGACGTGTTGAGCGAGGAGCAGATCAATGAGTGCCAAGAGCTGGGTGTTCTTGTGGATAGGGATGACCAGGGCGTTCTGCTTCAAATTGCCACTAAGCCAGTGGGCGACCGCCCTACATTCTGGCTTGAGATGATTCAAAGAATCGGCTGCATGGAGAAGGATGAGGTTGGACAGGAGTACCAAAAGGGCGGATGCGGTGGCTTCGGAAAGGGTAACTTCAGCGAGTTGTTCAAGTCAATCGAGGACTACGAGAAGAGCCTCGAGGTGAAGCAGTCAGTGGTTGCCCAAAAGTCCTGA
modifications: HPPDm-5-02 Nucleotide Sequence
notes: vector DBN11786
14: Classification and statistics of the grade of pesticide damage Grade 0 ([2]; isoxaflutole 280 g ai/ha (4×))
6: Scores ([2]; isoxaflutole 280 g ai/ha (4×))
1: Classification and statistics of the grade of pesticide damage Grade 1 ([2]; isoxaflutole 280 g ai/ha (4×)) | Classification and statistics of the grade of pesticide damage Grade 2 ([2]; isoxaflutole 280 g ai/ha (4×))
Highly resistant: Resistance evaluation ([1]; topramezone 100 g ai/ha (4×)) | Resistance evaluation ([1]; topramezone 200 g ai/ha (8×)) | Resistance evaluation ([2]; isoxaflutole 140 g ai/ha (2×)) | Resistance evaluation ([2]; isoxaflutole 280 g ai/ha (4×)) | Resistance evaluation ([3]; mesotrione 210 g ai/ha (2×)) | Resistance evaluation ([3]; mesotrione 420 g ai/ha (4×))
0: Classification and statistics of the grade of pesticide damage Grade 1 ([1]; topramezone 100 g ai/ha (4×)) | Classification and statistics of the grade of pesticide damage Grade 2 ([1]; topramezone 100 g ai/ha (4×)) | Classification and statistics of the grade of pesticide damage Grade 3 ([1]; topramezone 100 g ai/ha (4×)) | Scores ([1]; topramezone 100 g ai/ha (4×)) | Classification and statistics of the grade of pesticide damage Grade 1 ([1]; topramezone 200 g ai/ha (8×)) | Classification and statistics of the grade of pesticide damage Grade 2 ([1]; topramezone 200 g ai/ha (8×)) | Classification and statistics of the grade of pesticide damage Grade 3 ([1]; topramezone 200 g ai/ha (8×)) | Scores ([1]; topramezone 200 g ai/ha (8×)) | Classification and statistics of the grade of pesticide damage Grade 1 ([2]; isoxaflutole 140 g ai/ha (2×)) | Classification and statistics of the grade of pesticide damage Grade 2 ([2]; isoxaflutole 140 g ai/ha (2×)) | Classification and statistics of the grade of pesticide damage Grade 3 ([2]; isoxaflutole 140 g ai/ha (2×)) | Scores ([2]; isoxaflutole 140 g ai/ha (2×)) | Classification and statistics of the grade of pesticide damage Grade 3 ([2]; isoxaflutole 280 g ai/ha (4×)) | Classification and statistics of the grade of pesticide damage Grade 1 ([3]; mesotrione 210 g ai/ha (2×)) | Classification and statistics of the grade of pesticide damage Grade 2 ([3]; mesotrione 210 g ai/ha (2×)) | Classification and statistics of the grade of pesticide damage Grade 3 ([3]; mesotrione 210 g ai/ha (2×)) | Scores ([3]; mesotrione 210 g ai/ha (2×)) | Classification and statistics of the grade of pesticide damage Grade 1 ([3]; mesotrione 420 g ai/ha (4×)) | Classification and statistics of the grade of pesticide damage Grade 2 ([3]; mesotrione 420 g ai/ha (4×)) | Classification and statistics of the grade of pesticide damage Grade 3 ([3]; mesotrione 420 g ai/ha (4×)) | Scores ([3]; mesotrione 420 g ai/ha (4×))
16: Classification and statistics of the grade of pesticide damage Grade 0 ([1]; topramezone 100 g ai/ha (4×)) | Classification and statistics of the grade of pesticide damage Grade 0 ([1]; topramezone 200 g ai/ha (8×)) | Classification and statistics of the grade of pesticide damage Grade 0 ([2]; isoxaflutole 140 g ai/ha (2×)) | Classification and statistics of the grade of pesticide damage Grade 0 ([3]; mesotrione 210 g ai/ha (2×)) | Classification and statistics of the grade of pesticide damage Grade 0 ([3]; mesotrione 420 g ai/ha (4×))
